From publication PMC10819331 come the findings set out here.

This data set deals with T1, MBP-Z3495 (LysR-type regulator) (Escherichia coli O157:H7 EDL933?), ORF:b652805f.
T1 sequence: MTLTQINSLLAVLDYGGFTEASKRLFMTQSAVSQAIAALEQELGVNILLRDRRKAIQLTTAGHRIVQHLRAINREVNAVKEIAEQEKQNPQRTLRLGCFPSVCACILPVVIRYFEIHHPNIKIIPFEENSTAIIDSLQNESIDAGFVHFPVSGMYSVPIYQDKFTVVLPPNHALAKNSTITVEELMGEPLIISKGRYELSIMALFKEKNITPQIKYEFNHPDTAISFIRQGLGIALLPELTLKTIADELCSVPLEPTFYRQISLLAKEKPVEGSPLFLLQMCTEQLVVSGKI
As to the kind of experiment: EMSA. On the technique in general: Mobility shift assays separate free from complexed probe on a gel.

As for “GTTATCGCAGGGAGCCACACAGCGTGTGTTGGACGCGACTCAGCTTTACCTTGGTGAGATTGGTTATTCACCACTGTTAACGGCCGAAGAAGAAGTTTATTTTGCGCGTCGCGCACTGCGTGGAGATGTCGCCTCTCGCCGCCGGATGATCGAGAGTAACTTGCGTCTGGTGGTAAAA (double strand) [rpoS fragment]”, the binding entry is “no binding”. “TAAAAACTCTTCAACGTTTCTTTTAACTAAAAGATTCATCTGCAGGCTCTGAAGTAAGTATACGTGTGAATATTATTGCTTGAAAAAGCGTATTGGATAATATATACAGTATATGTACTTTATGTACATTGCAACTATTTAAATAATATAATAGTTGCCTATGGGATAATTTGGTTATTTATAACCAGGTAAATGTCTAAATTAGACAAAAGGAGAAAGATCAATGGAAGCAGCAAATTTAAGTCCTTCTGGTGCAGTAATGCCGCTGGCGACCTCACTCA (double strand) [LEE2/3 promoter]”: the binding result is recorded as “no binding”.

For “AATTCCCGATTACGCATCGCACCATTGAGAAGTTTTATTTTATATGAGGATAACATTTTTAAATTTTATTCATCCTGGTGGTTGAACAATGAGAAAAAATATGGTGAACTTACATCGTCTAAGAATAGAGTAGAAAGGAAGCTGTTGTACAGTACTATTTAATGGAATATTCATAATTAAT (double strand) [LEE4 promoter]”, the binding entry is “no binding”.
